# Assay results as given in paper PMC3657149, “Mig6 Is a Sensor of EGF Receptor Inactivation that Directly Activates c-Abl to Induce Apoptosis during Epithelial Homeostasis” (Developmental Cell, 2012).
# Biological target: immunopurified Abl (UniProt P00519-2 1-1149)
# Assay: cell-based or functional assay
# Sequence of immunopurified Abl (P00519 other isoform, or with tags, fused parts or gaps): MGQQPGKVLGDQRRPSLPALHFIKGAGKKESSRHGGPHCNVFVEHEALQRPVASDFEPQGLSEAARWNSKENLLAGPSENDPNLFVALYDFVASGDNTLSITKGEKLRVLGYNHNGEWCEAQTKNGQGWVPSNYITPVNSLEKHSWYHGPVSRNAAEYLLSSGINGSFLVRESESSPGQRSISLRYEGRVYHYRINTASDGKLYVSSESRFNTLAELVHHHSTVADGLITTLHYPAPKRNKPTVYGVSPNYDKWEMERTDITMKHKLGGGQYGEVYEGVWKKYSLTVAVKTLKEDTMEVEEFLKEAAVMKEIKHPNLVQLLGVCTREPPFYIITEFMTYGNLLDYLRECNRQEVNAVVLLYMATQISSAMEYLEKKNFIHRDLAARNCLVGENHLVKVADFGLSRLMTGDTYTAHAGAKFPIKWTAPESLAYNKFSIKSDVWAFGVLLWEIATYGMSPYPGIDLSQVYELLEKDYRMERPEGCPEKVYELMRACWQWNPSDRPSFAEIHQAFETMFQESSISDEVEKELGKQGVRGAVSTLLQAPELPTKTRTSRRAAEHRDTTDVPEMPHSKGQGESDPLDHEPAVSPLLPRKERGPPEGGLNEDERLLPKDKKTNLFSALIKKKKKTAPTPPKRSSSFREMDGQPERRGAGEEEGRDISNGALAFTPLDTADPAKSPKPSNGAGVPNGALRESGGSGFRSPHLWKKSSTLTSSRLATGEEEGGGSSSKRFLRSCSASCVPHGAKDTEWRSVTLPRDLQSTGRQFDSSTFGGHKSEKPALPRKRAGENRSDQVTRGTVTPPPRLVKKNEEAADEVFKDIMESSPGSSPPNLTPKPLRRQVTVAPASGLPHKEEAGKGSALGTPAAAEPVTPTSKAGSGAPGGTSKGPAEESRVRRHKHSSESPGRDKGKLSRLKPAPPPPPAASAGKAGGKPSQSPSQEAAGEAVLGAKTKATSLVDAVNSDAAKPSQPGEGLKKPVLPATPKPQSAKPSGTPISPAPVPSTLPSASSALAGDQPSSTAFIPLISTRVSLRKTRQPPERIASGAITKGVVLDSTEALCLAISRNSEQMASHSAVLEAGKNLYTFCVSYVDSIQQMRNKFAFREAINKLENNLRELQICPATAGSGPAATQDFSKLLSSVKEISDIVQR
binder,measurement,value
"bacterially produced Mig6 (natural protein, UniProt Q9UJM3 1-462, looked up) MSIAGVAAQEIRVPLKTGFLHNGRAMGNMRKTYWSSRSEFKNNFLNIDPITMAYSLNSSAQERLIPLGHASKSAPMNGHCFAENGPSQKSSLPPLLIPPSENLGPHEEDQVVCGFKKLTVNGVCASTPPLTPIKNSPSLFPCAPLCERGSRPLPPLPISEALSLDDTDCEVEFLTSSDTDFLLEDSTLSDFKYDVPGRRSFRGCGQINYAYFDTPAVSAADLSYVSDQNGGVPDPNPPPPQTHRRLRRSHSGPAGSFNKPAIRISNCCIHRASPNSDEDKPEVPPRVPIPPRPVKPDYRRWSAEVTSSTYSDEDRPPKVPPREPLSPSNSRTPSPKSLPSYLNGVMPPTQSFAPDPKYVSSKALQRQNSEGSASKVPCILPIIENGKKVSSTHYYLLPERPPYLDKYEKFFREAEETNGGAQIQPLPADCGISSATEKPDSKTKMDLGGHVKRKHLSYVVSP",activation (phosphorylation) of immunopurified Abl in the presence of bacterially produced Mig6,2.2 fold
